Experimental data reported in publication PMC5665528, “Characterization of the deubiquitination activity and substrate specificity of the chicken ubiquitin-specific protease 1/USP associated factor 1 complex” (PLoS ONE, 2017).

Target: T1, chicken ubiquitin-specific protease 1, chUSP1^GG680,681AA double mutant (full-length control) (chicken, UniProt F1NPR3 1-794, G680A | G681A)
T1 sequence (looked up): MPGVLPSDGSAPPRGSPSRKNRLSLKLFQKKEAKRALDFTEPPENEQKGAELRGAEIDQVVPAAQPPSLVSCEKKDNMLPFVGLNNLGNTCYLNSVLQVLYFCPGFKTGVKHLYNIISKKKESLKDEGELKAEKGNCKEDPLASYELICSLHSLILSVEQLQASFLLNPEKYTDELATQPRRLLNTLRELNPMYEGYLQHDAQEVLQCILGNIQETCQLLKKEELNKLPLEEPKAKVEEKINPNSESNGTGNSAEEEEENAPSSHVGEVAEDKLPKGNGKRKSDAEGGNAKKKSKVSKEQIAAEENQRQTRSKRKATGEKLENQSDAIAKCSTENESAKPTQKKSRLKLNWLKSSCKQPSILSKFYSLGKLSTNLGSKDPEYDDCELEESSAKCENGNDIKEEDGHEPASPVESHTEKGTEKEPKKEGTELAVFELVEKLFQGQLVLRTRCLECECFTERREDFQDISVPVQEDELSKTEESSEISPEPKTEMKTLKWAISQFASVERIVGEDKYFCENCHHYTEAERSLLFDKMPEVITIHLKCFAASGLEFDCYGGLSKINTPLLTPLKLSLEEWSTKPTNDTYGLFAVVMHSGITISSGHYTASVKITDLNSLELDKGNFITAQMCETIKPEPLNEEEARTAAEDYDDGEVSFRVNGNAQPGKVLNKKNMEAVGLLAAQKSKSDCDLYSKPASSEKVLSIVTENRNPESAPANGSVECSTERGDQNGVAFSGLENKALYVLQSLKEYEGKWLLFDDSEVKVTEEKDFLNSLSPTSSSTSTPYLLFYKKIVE
Test: cell-based or functional assay

KM of chUSP1^FL (hydrolysis of Ub-AMC) in the presence of chUAF1 against chUSP1^FL alone, fold decrease: 2.87 fold
deubiquitination activity (kcat/KM, hydrolysis of Ub-AMC) of chUSP1^FL/chUAF1 against chUSP1^FL alone: 54 fold
deubiquitination activity of 125 nM chUSP1^FL (AMC fluorescence from 100 nM Ub-AMC) three minutes after the addition of 125 nM chUAF1, against the control without chUAF1: > 2 fold
kcat of chUSP1^FL (hydrolysis of Ub-AMC) in the presence of chUAF1 against chUSP1^FL alone: 21 fold
B1: chicken USP associated factor 1, untagged (natural protein)
chain: not shown
